From patent US20070293451A1, “Regulation ao ApoB by Hsp110 proteins and related compositions and methods” (University of Pittsburgh, priority 2006, published 2007)

B1: Sse1p: active, recombinant purified yeast Hsp110 homolog Sse1p (GenBank NP_015219) (protein)
chain: STPFGLDLGNNNSVLAVARNRGIDIVVNEVSNRSTPSVVGFGPKNRYLGETGKNKQTSNIKNTVANLKRIIGLDYHHPDFEQESKHFTSKLVELDDKKTGAEVRFAGEKHVFSATQLAAMFIDKVKDTVKQDTKANITDVCIAVPPWYTEEQRYNIADAARIAGLNPVRIVNDVTAAGVSYGIFKTDLPEGEEKPRIVAFVDIGHSSYTCSIMAFKKGQLKVLGTACDKHFGGRDFDLAITEHFADEFKTKYKIDIRENPKAYNRILTAAEKLKKVLSANTNAPFSVESVMNDVDVSSQLSREELEELVKPLLERVTEPVTKALAQAKLSAEEVDFVEIIGGTTRIPTLKQSISEAFGKPLSTTLNQDEAIAKGAAFICAIHSPTLRVRPFKFEDIHPYSVSYSWDKQVEDEDHMEVFPAGSSFPSTKLITLNRTGDFSMAASYTDITQLPPNTPEQIANWEITGVQLPEGQDSVPVKLKLRCDPSGLHTIEEAYTIEDIEVEEPIPLPEDAPEDAEQEFKKVTKTVKKDDLTIVAHTFGLDAKKLNELIEKENEMLAQDKLVAETEDRKNTLEEYIYTLRGKLEEEYAPFASDAEKTKLQGMLNKAEEWLYDEGFDSIKAKYIAKYEELASLGNIIRGRYLAKEEEKKQAIRSKQEASQMAAMAEKLAAQRKAEAEKKEEKKDTEGDVDMD
B2: Hsp110: human Hsp110 over-expressed from an expression vector in McArdle cells (protein, UniProt Q92598 2-858, looked up)
Heat shock protein 105 kDa: SVVGLDVGSQSCYIAVARAGGIETIANEFSDRCTPSVISFGSKNRTIGVAAKNQQITHANNTVSNFKRFHGRAFNDPFIQKEKENLSYDLVPLKNGGVGIKVMYMGEEHLFSVEQITAMLLTKLKETAENSLKKPVTDCVISVPSFFTDAERRSVLDAAQIVGLNCLRLMNDMTAVALNYGIYKQDLPSLDEKPRIVVFVDMGHSAFQVSACAFNKGKLKVLGTAFDPFLGGKNFDEKLVEHFCAEFKTKYKLDAKSKIRALLRLYQECEKLKKLMSSNSTDLPLNIECFMNDKDVSGKMNRSQFEELCAELLQKIEVPLYSLLEQTHLKVEDVSAVEIVGGATRIPAVKERIAKFFGKDISTTLNADEAVARGCALQCAILSPAFKVREFSVTDAVPFPISLIWNHDSEDTEGVHEVFSRNHAAPFSKVLTFLRRGPFELEAFYSDPQGVPYPEAKIGRFVVQNVSAQKDGEKSRVKVKVRVNTHGIFTISTASMVEKVPTEENEMSSEADMECLNQRPPENPDTDKNVQQDNSEAGTQPQVQTDAQQTSQSPPSPELTSEENKIPDADKANEKKVDQPPEAKKPKIKVVNVELPIEANLVWQLGKDLLNMYIETEGKMIMQDKLEKERNDAKNAVEEYVYEFRDKLCGPYEKFICEQDHQNFLRLLTETEDWLYEEGEDQAKQAYVDKLEELMKIGTPVKVRFQEAEERPKMFEELGQRLQHYAKIAADFRNKDEKYNHIDESEMKKVEKSVNEVMEWMNNVMNAQAKKSLDQDPVVRAQEIKTKIKELNNTCEPVVTQPKPKIESPKLERTPNGPNIDKKEEDLEDKNNFGAEPPHQNGECYPNEKNSVNMDLD

Tests used:
ApoB48 = assay: In vitro ApoB48 degradation assay in yeast cytosol with added purified protein; format: biochemical; conditions: purified protein added to wild type (SSE1) or delete (sse1) cytosols
Protocol: In vitro Analysis of ApoB Degradation: ^35S methionine labeled ApoB48 was synthesized in the presence of canine pancreatic microsomes (DPM; Promega, Madison, Wis.) using the SP6-TNT Kit (Promega) and plasmid pSPB48 (see above) as previously described (Gusarova, et al., 2001). The reaction mixture was then layered onto 1 mL SH buffer (0.25M sucrose, 5 mM Hepes, pH 7.4) and centrifuged at 100,000g for 30 min at 4° C. The microsomal pellets were resuspended in 12 μl of 2×PH buffer (40 mM HEPES, pH 7.4, 220 mM KCl, 10 mM MgCl2) and pooled. Cytosol, prepared as previously described (McCracken and Brodsky, 1996), was diluted to a specified concentration and pre-incubated with 0.25 mM MG132 (Peptides International) or an equivalent volume of DMSO for 15 min on ice. Following the pre-incubation, cytosol and ApoB48 were mixed 1:1 with these reagents at final concentrations of, 2 mM ATP, 10 mM creatine phosphate, and 100μg/mL creatine phosphokinase. Aliquots of the reaction were incubated at 37° C. for 5, 15 and 30 min or the indicated times and the reaction was quenched by adding an equal volume of 2×Urea Buffer (125 mM Tris, pH 6.8, 4% SDS, 6M Urea, 1 mM EDTA, 10 mM DTT, 250 mM β-mercaptoethanol, 20% Glycerol) and the mixture was heated at 96° C. for 4 min. […] Phosphorimager data was analyzed using Image Gauge software (Fuji Film Science Lab). […]

albumin = assay: Albumin secretion from McArdle cells (control); format: cell-based, rat; conditions: Hsp110 over-expressed or not
Protocol: (§1) FIGS. 9A and 9B show the effect of Hsp110 over-expression on ApoB100 secretion from McArdle cells, a standard rat hepatoma cell model of lipoprotein metabolism. ApoB100 (FIG. 9A) and albumin (FIG. 9B) biogenesis and secretion were assessed by published pulse-chase analytical methods.
(§2) An Hsp110 expression vector was obtained from Dr. John Subjeck (Roswell Park Cancer Center, N.Y.), and either that vector or a vector control was introduced into McArdle cells—a rat hepatoma cell line that also expresses full-length ApoB (that is, ApoB100). […] As a control, there was no effect on albumin secretion from these cells, regardless of whether Hsp110 was over-expressed (FIG. 9B). Furthermore, the over-expression of Hsp110 in the McArdle cells in the presence of a microsomal triglyceride transfer protein (MTP) inhibitor (BMS-200150; Jamil, H., D. A. Gordon, D. C. Eustice, C. M. Brooks, J. K. Dickson, Jr., Y. Chen, B. Ricci, C.-H. Chu, T. W. Harrity, C. P. Ciosek, Jr., S. A. Biller, R. E. Gregg, and J. R. Wetterau. 1996. An inhibitor of the microsomal triglyceride transfer protein inhibits apoB secretion from HepG2 cells. Proc Natl Acad Sci USA. 93, 11991-95) increased the percent of apoB recovered in the lysate and medium fractions from 14% to 28% (data not shown).

ApoB100 = ApoB100 biogenesis and secretion from McArdle cells (pulse-chase) on Hsp110 over-expression; format: cell-based, rat
Protocol: as §1, §2

Molecule	effect on ApoB48 in vitro (ApoB48)	effect on albumin secretion (albumin)	percent of apoB recovered in the lysate and medium fractions (ApoB100; Hsp110 over-expression in the presence of MTP inhibitor BMS-200150, data not shown) [%]	amount of ApoB100 in cell extracts (ApoB100; especially notable at 30 min time point)	increase in the amount of ApoB 100 secreted (ApoB100; medium, Hsp110 vector vs vector control) [fold]
B1	stabilizes ApoB48	–	–	–	–
B2	–	no effect	28	concomitant increase	~2
